Test results as given in US20100254992A1 (published 2010).

Assays:
human Eotaxin 1 = human Eotaxin 1 (human, UniProt P51671 24-97); test: BioVeris solution equilibrium titration
Method: Solution Equilibrium Titration (SET) Method for KD Determination and Cross-Reactivity Studies Using BioVeris. Affinity determination in solution was basically performed as described in the literature (Friguet et al., 1985). In order to improve the sensitivity and accuracy of the SET method, it was transferred from classical ELISA to ECL based BioVeris technology (Haenel et al., 2005, accepted for publication in Analytical Biochemistry). 1 mg/ml goat-anti-human (Fab)₂ or goat-anti-mouse IgG, Fc fragment specific antibodies (Jackson Immuno Research) were labelled with BV-tag™ NHS-Ester (Bioveris Europe, Witney, Oxfordshire, UK) according to manufacturer's instructions. The experiments were carried out in polypropylene microtiter plates and PBS pH 7.4 with 0.5% BSA and 0.02% Tween 20 as assay buffer. Unlabeled antigen was diluted in 4ⁿ series: For human and cyno MCP-1 a concentration range of 10 pM to 40 nM and for cross-reactivity controls (Eotaxin and MCP-2) a concentration range of 40 pM to 160 nM was chosen. Wells without antigen were used to determine Smax values. After addition of 100 pM Fab or IgG (final concentration in 75 μL final volume), the mixture was incubated for 2 hours at RT. […]
Specificity Testing Using BioVeris. Beside the affinity also the specificity, especially the cross-reactivity to Eotaxin and MCP-2, was analyzed in solution equilibrium titration (SET) using BioVeris. […]

human MCP-4 = target: T1, human MCP-4 (human, UniProt Q99616 24-98, limits assumed); test: Biacore, IgG capture mode
T1 construct: also called CCL13

human MCP-3 = target: T2, human MCP-3 (human, UniProt P80098 24-99); test: Biacore, IgG capture mode
T2 construct: also called CCL7
T2 sequence (P80098 24-99 limits assumed): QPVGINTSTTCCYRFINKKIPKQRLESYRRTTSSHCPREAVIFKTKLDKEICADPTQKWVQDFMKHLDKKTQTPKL

human Eotaxin 3 = target: T3, human Eotaxin 3 (human, UniProt Q9Y258 24-94); test: Biacore, IgG capture mode
T3 sequence (looked up): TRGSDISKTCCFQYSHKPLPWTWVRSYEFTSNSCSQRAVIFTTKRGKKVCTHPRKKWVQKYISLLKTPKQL

human Eotaxin 2 = target: T4, human Eotaxin 2 (human, UniProt O00175 27-104, limits assumed); test: Biacore, IgG capture mode
T4 sequence (looked up): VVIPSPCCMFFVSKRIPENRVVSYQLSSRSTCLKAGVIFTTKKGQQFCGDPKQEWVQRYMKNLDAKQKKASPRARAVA

binding result (human Eotaxin 1): no binding (tested: 40 pM to 160 nM)
binding result (human MCP-4): no binding (tested: 100 nM)
binding result (human MCP-3): no binding (tested: 100 nM)
binding result (human Eotaxin 3): no binding (tested: 100 nM)
binding result (human Eotaxin 2): no binding (tested: 100 nM)
B1: MOR03790 IgG1 (antibody, V domains shown)
VH: QVELVQSGAEVKKPGSSVKVSCKASGGTFSSYGISWVRQAPGQGLEWMGGIIPIFGTANYAQKFQGRVTITADESTSTAYMELSSLRSEDTAVYYCARYDGIYGELDFWGQGTLVTVSS
VL: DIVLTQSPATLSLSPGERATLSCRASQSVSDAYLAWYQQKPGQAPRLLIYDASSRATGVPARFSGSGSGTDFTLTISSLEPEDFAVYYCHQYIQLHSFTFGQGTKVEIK
notes: Human IgG1; also called MOR3790 IgG1; MOR3790k IgG
